Here are results for two substances from patent US20040126856A1, “Factor ixa: factor Vllla interaction and methods therefor” (priority 2004, published 2004).

Common to all, as to assay type: biochemical
The target of assay [1] is T1, A2 subunit of factor VIIIa (Homo sapiens, UniProt P00451).
T1 construct: cleaved by thrombin at R372-S373, R740-S741, and R1689-S1690 to yield factor VIIIa
T1 sequence (P00451 392-759): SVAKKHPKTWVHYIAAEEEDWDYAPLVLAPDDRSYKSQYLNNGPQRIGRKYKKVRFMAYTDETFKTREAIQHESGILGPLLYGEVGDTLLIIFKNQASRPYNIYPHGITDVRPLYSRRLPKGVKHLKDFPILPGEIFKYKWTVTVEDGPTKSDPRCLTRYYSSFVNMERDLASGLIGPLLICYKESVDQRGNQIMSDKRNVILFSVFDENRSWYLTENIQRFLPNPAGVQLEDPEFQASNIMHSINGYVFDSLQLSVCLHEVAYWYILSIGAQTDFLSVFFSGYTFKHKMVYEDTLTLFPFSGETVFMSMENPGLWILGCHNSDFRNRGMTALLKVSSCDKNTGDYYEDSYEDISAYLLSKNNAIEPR
The assay can be described thus: EC50 (functional Kd) of interaction of factor IXa proteins with A2 subunit, factor Xa generation (S-2222). The following applies: 5 nM factor IXa, 250 nM factor X, 25 μM PL, 5 mM CaCl2 (FIG. 1). As to the method:
Determination of EC50 of Interaction of Factor IXa Proteins with A2 Subunit.
The EC50 (functional Kd) of binding of each factor IXa protein with A2 subunit was measured essentially as described previously for its interaction with intact factor VIIIa (Mather and Bajaj, 1999; Mather et al., 1997). For these experiments, concentrations of factor IXa and factor X were kept constant, and the rates of formation of factor Xa were determined at increasing concentrations of A2 subunit. Reaction mixtures contained 5 nM IXa protein, 250 nM factor X, 25 μM PL and various concentrations of A2 subunit in TBS/BSA, pH 7.5 containing 5 mM CaCl2. Reactions were carried out at 37° C. for 5-20 minutes and stopped by adding 1 μL of 500 mM EDTA. The amount of factor Xa generated was determined by S-2222 hydrolysis as described previously (Mather and Bajaj, 1999; Mather et al., 1997). The EC50 was obtained by fitting the data to a single site ligand binding equation (Eq. 1) by non-linear regression analysis using the program GraFit from Erithacus Software. [formula]
Where V is the rate of formation of factor Xa at a given concentration of the A2 subunit, denoted by L, and Vmax is the rate of factor Xa formation by the factor IXa:A2 subunit complex. EC50 is the functional Kd defined as the concentration of free A2 subunit yielding 50% of the Vmax. The background rate of factor Xa generation was obtained by carrying out the reaction in the absence of the A2 subunit.

Assay [2] concerns the target T1, A2 subunit of factor VIIIa. Put plainly: Apparent KdA2 of dEGR-IXa proteins: inhibition of IXaWT:A2 subunit interaction in the tenase system. The following applies: for Kd: values from FIG. 3, read-out: App KdA2; for ΔG°A2: ΔG° = RTlnKd, 298 Kelvin. As to the method:
Determination of KdA2 of Binding of dEGR-IXa Proteins to A2 Subunit.
The apparent Kd (termed KdA2) for binding of each dEGR-IXa protein to the A2 subunit was determined by its ability to inhibit factor IXaWT:A2 subunit interaction in the tenase complex as described earlier for intact factor VIIIa (Mather and Bajaj, 1999; Mather et al., 1997). The reactions were carried out as described for the EC50 experiments above except dEGR-IXa and IXaWT were mixed prior to addition of the A2 subunit; this ensured steady state conditions. Mixtures contained 100 nM IXaWT, 30 nM A2 subunit, 250 nM factor X, 25 μM PL, and various concentrations of dEGR-IXa proteins in TBS/BSA, pH 7.5 containing 5 mM CaCl2. The IC50 (concentration of inhibitor required for 50% inhibition) was determined by fitting the data to the IC50 four-parameter logistic equation of Halfman (1981) given below (Eq. 2). [formula]
where y is the rate of Xa formation in the presence of a given concentration of dEGR-IXa protein represented by x, a is the maximum rate of factor Xa formation in the absence of dEGR-IXa, and s is the slope factor. Each point was weighted equally, and the data were fitted to Equation 2 using the nonlinear regression analysis program GraFit from Erithacus Software. […] To obtain KdA2 values for the interaction of dEGR-IXa proteins with A2, we used the following equation (Eq. 3) as described by Cheng and Prusoff (1973) and further elaborated by Craig (1993). [formula]
where A is the concentration of IXaWT, and EC50 is the concentration of factor IXaWT that gives a 50% maximum response in the absence of the competitor at a specified concentration of factor X used in the experiment.

For the next assay, the target named is T2, A2 558-565 peptide (Homo sapiens, UniProt P00451).
T2 construct: made in house; host or cells: chemical synthesis (synthetic peptide)
Put plainly: Apparent Kdpeptide of binding of each factor IXa to the A2 558-565 peptide. The following applies: for Kd: values from FIG. 5, A2 558-565 peptide, read-out: App Kdpeptide; for ΔG°peptide: ΔG° = RTlnKd, 298 Kelvin. On the procedure: Determination of the Apparent Kdpeptide of Binding of Each Factor IXa to the A2 558-565 Peptide.
The apparent Kd (termed Kdpeptide) for binding of each factor IXa to the A2 558-565 peptide was determined by its ability to inhibit the respective IXa:A2 subunit interaction as measured by reduction in the rate of factor X activation in the tenase system. The reaction mixtures for both IXaWT and IXaPCEGF1 contained 100 nM factor IXa, 30 nM A2 subunit, 250 nM factor X, and 25 μM PL in TBS/BSA, pH 7.5 with 5 mM CaCl2. The reaction mixture for IXaR333Q contained 300 nM factor IXa instead of 100 nM used for IXaWT or IXaPCEGF1; concentrations of other components were the same. The amount of factor Xa generated was determined by hydrolysis of S-2222. The IC50 values were obtained using Eq. 2. Here, y is the rate of factor Xa formation in the presence of a given concentration of the A2 558-565 peptide represented by x, and a is the maximum rate of factor Xa formation in the absence of the A2 peptide. Eq. 3 was then used to obtain the apparent Kdpeptide values. In this context, A is the concentration of IXaWT, IXaPCEGF1, or IXaR333Q, and EC50 is the apparent KdA2 for the respective IXa:A2 subunit interaction.

Take “IXaR333Q: activated factor IX point mutant in which Arg333 is replaced by Gln”: in assay [1], the “Ability of the A2 subunit to enhance/potentiate the factor X-activating activity of the IXa protein” value is “severely impaired” and the “EC50 (functional Kd), apparent Kd of interaction with the A2 subunit, single site-binding model” value is “could not be calculated”. In assay [2], the “Change in ΔG°A2 between the mutant and WT” value amounted to 7.2 kJ/mol; the “Fold-change in apparent KdA2 (mutant/WT)” value was about 15; the Kd worked out at 1.85 ± 0.082 µM; the “ΔG°A2” value was 32.7 kJ/mol. Besides, in the assay with A2 558-565 peptide, the “Change in ΔG°peptide between the mutant and WT” value stood at 6.78 kJ/mol; the “Fold-change in apparent Kdpeptide (mutant/WT)” value is listed as about 15; the Kd is 62 ± 9 µM; the “ΔG°peptide” value came out at 24 kJ/mol.

One may read the EC50 as the concentration at which the effect is half-maximal. For the substance “IXaWT: activated recombinant wild-type factor IX (IXWT)”, the EC50 in assay [1] (read-out: EC50 (functional Kd), apparent Kd of interaction with the A2 subunit, single site-binding model) worked out at 0.257 ± 0.031 µM. Also, in assay [2], the Kd came out at 0.1 ± 0.011 µM and the “ΔG°A2” value is 39.9 kJ/mol. In addition, in the assay with A2 558-565 peptide, the Kd turned out to be 4 ± 1 µM and the “ΔG°peptide” value worked out at 30.8 kJ/mol.
